Data published in PMC5571166, “Mapping the key residues of SufB and SufD essential for biosynthesis of iron-sulfur clusters” (Scientific Reports, 2017).

Key:
Assay in all cases: SEC; SufBCD complexes co-expressed in E. coli and co-purified on Phenyl FF, Q XL and Sephacryl S-200; eluted from gel filtration at about 160 kDa; subunit composition checked by SDS-PAGE of the purified sample
Conditions in all cases: both partners purified
[1] = target: T1, SufB^E434A (Escherichia coli, UniProt P77522 1-495, SufB^E434A)
T1 construct: SufB of the Escherichia coli sufABCDSE operon
T1 sequence: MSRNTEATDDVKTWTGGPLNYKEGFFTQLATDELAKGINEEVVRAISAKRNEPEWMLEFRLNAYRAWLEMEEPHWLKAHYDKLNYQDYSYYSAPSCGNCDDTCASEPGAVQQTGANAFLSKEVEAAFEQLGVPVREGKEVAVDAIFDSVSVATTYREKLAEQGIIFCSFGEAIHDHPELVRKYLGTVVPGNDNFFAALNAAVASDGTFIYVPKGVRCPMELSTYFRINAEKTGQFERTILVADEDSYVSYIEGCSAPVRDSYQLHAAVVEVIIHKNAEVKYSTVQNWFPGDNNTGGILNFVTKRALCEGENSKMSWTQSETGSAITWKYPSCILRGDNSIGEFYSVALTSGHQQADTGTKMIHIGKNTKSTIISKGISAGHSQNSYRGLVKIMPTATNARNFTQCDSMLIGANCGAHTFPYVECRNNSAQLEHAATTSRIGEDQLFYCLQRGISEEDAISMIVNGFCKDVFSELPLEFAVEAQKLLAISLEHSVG

[2] = target: T2, SufB^W287A (Escherichia coli, UniProt P77522 1-495, SufB^W287A)
T2 construct: SufB of the Escherichia coli sufABCDSE operon; source: pBBR-sufAB carrying the mutation, in bacterial extract
T2 sequence: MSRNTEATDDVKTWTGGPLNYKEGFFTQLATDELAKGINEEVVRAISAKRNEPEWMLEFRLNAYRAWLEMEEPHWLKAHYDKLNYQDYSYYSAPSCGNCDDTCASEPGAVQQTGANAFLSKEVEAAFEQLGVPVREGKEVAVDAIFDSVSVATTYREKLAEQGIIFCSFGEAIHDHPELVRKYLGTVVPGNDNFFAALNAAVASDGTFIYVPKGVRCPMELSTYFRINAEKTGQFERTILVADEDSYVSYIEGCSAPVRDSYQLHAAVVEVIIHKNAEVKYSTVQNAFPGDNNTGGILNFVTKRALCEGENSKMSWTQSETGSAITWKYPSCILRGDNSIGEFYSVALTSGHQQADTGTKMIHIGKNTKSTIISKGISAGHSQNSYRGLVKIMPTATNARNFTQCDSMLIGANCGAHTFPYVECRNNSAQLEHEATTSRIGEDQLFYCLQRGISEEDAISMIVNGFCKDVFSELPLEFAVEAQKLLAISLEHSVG

[3] = target: T3, SufB^Q285A (Escherichia coli, UniProt P77522 1-495, SufB^Q285A)
T3 construct: SufB of the Escherichia coli sufABCDSE operon; source: pBBR-sufAB carrying the mutation, in bacterial extract
T3 sequence: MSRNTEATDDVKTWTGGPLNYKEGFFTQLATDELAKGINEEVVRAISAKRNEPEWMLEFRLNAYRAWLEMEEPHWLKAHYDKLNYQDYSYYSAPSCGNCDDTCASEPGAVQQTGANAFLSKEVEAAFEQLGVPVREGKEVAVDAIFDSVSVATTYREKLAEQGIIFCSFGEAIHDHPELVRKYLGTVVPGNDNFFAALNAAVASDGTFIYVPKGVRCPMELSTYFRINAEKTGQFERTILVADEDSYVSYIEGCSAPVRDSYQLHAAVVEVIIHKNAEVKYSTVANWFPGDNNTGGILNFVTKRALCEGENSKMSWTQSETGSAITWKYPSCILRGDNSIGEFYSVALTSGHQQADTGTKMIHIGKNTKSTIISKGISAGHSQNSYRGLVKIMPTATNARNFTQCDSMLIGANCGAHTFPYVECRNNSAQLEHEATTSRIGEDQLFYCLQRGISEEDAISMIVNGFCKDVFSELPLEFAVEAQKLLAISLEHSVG

[4] = target: T4, SufB^K303A (Escherichia coli, UniProt P77522 1-495, SufB^K303A)
T4 construct: SufB of the Escherichia coli sufABCDSE operon
T4 sequence: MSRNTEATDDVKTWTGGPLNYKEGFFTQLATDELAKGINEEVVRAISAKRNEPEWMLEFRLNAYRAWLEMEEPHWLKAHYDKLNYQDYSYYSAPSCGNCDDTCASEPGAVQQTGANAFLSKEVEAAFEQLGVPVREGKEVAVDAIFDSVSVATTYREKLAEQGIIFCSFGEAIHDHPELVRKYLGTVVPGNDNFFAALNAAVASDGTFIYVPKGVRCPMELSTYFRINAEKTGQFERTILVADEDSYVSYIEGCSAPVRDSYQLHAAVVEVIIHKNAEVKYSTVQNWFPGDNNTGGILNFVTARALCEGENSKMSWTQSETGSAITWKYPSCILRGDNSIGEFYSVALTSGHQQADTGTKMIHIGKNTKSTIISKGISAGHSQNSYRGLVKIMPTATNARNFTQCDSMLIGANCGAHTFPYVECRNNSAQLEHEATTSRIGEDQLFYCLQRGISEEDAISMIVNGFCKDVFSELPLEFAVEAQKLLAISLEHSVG

Measured: binding result

B1: SufC (natural protein, Escherichia coli)
chain: MLSIKDLHVSVEDKAILRGLSLDVHPGEVHAIMGPNGSGKSTLSATLAGREDYEVTGGTVEFKGKDLLALSPEDRAGEGIFMAFQYPVEIPGVSNQFFLQTALNAVRSYRGQETLDRFDFQDLMEEKIALLKMPEDLLTRSVNVGFSGGEKKRNDILQMAVLEPELCILDESDSGLDIDALKVVADGVNSLRDGKRSFIIVTHYQRILDYIKPDYVHVLYQGRIVKSGDFTLVKQLEEQGYGWLTEQQ
notes: SufC of the Escherichia coli sufABCDSE operon; also called SufC subunit of the SufBCD complex
binds: [1] | [2] | [3] | [4]

B2: SufD (natural protein, Escherichia coli)
chain: MAGLPNSSNALQQWHHLFEAEGTKRSPQAQQHLQQLLRTGLPTRKHENWKYTPLEGLINSQFVSIAGEISPQQRDALALTLDSVRLVFVDGRYVPALSDATEGSGYEVSINDDRQGLPDAIQAEVFLHLTESLAQSVTHIAVKRGQRPAKPLLLMHITQGVAGEEVNTAHYRHHLDLAEGAEATVIEHFVSLNDARHFTGARFTINVAANAHLQHIKLAFENPLSHHFAHNDLLLAEDATAFSHSFLLGGAVLRHNTSTQLNGENSTLRINSLAMPVKNEVCDTRTWLEHNKGFCNSRQLHKTIVSDKGRAVFNGLINVAQHAIKTDGQMTNNNLLMGKLAEVDTKPQLEIYADDVKCSHGATVGRIDDEQIFYLRSRGINQQDAQQMIIYAFAAELTEALRDEGLKQQVLARIGQRLPGGAR
notes: SufD of the Escherichia coli sufABCDSE operon; One SufD per SufBCD complex (1:2:1); also called SufD subunit of the SufBCD complex
binds: [1] | [2] | [3] | [4]
